This is an account of results in US20080306007A1 (NEWCASTLE INNOVATION, published 2008).

Assay [1] addresses T1, syndapin I (native, from rat brain lysate or synaptosomes) (rat, UniProt Q9Z0W5 1-441).
T1 construct: also called PACSIN I; 52 kDa band
Description: GST pull-down from rat brain lysate.

For assay [2], the target named is T2, endophilin I (native, from rat brain lysate or synaptosomes) (rat, UniProt O35179 1-352).
T2 construct: mature
In words: peptide competition in GST-DynI-PRD pull-down from rat brain lysate, Western blot. As for the experimental part: Total rat brain extract was prepared by homogenising brain tissue in ice-cold lysis buffer (1% Triton X-100, 150 mM NaCl, 25 mM Tris pH 7.4, 1 mM EDTA, 1 mM EGTA, 20 μg/ml leupeptin, 1 mM phenylmethylsulfonyl fluoride and EDTA-free Complete protease inhibitor (Roche)). The homogenate was centrifuged twice at 75,600 g for 30 min at 4° C. The supernatant was pre-cleared by addition of GSH-sepharose beads for 1 h, pelleted at 50 g for 5 min at 4° C., and the supernatant collected. GST-DynI-PRD recombinant proteins were then incubated with an equal amount of tissue lysate at 4° C. for 1 h. Beads were washed extensively with ice-cold 20 mM Tris pH 7.4 containing 1 mM EGTA, eluted in 2×SDS-PAGE sample buffer, resolved on 7.5-15% gradient SDS gels and stained with colloidal Coomassie Blue. Identification of proteins was by matrix-assisted laser desorption ionization time-of-flight mass spectrometry (MALDI-TOF MS). Some peptides were sequenced by tandem MS/MS.
A common characteristic of most binding sites for SH3 domains is the presence of the core amino acid motif PxxP, which is often followed or preceded by a basic Arg residue. There are 13 such motifs in the dynamin I PRD (numbered from site 1 at the N-terminus of the PRD at Pro-753 in dynamin I). […]

T1 sequence (Q9Z0W5 whole entry): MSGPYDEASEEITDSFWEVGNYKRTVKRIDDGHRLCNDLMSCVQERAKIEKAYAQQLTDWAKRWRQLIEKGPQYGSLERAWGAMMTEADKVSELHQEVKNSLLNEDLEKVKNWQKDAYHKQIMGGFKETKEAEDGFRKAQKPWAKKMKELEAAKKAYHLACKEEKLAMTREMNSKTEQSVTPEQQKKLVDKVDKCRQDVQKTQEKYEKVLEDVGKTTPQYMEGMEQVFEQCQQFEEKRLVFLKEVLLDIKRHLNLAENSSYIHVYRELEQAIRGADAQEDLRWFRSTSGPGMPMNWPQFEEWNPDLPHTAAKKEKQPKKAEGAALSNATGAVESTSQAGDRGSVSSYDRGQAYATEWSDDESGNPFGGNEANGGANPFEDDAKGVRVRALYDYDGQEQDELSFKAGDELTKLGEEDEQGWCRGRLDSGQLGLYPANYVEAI
T2 sequence (O35179 whole entry): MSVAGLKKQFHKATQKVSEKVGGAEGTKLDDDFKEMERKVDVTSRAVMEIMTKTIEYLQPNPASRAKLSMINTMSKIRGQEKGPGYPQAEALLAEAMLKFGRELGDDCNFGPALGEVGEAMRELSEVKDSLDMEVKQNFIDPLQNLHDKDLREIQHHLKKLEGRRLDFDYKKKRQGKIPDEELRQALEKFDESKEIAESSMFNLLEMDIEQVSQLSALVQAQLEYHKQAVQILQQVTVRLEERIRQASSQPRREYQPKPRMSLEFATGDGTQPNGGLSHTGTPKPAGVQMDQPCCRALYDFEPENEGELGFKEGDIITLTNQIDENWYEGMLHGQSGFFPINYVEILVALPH

B1: GST-DynI-2D (other, rat, UniProt P21575 746-864, looked up)
chain: NTTTVSTPMPPPVDDSWLQVQSVPAGRRSPTSSPTPQEEAPAVPPARPGSRGPAPGPPPAGSALGGAPPVPSRPGASPDPFGPPPQVPSRPNRAPPGVPSRSGQASPSRPESPRPPFDL
notes: range 746-864; not shown: glutathione S-transferase tag from vector pGEX4T-1
B1: the binding result in assay [1] is given as “no binding”.

B2: GST-DynI-2E (other, rat, UniProt P21575 746-864, looked up)
chain: NTTTVSTPMPPPVDDSWLQVQSVPAGRRSPTSSPTPQAAAPAVPPARPGSRGPAPGPPPAGSALGGAPPVPSRPGASPDPFGPPPQVPSRPNRAPPGVPSRSGQASPSRPESPRPPFDL
notes: as for B1
Take B2: the binding result in assay [1] is recorded as “no binding”.

B3: DynI783-796 peptide (peptide)
peptide: RRAPAVPPARPGSR
notes: Synthetic peptide of the site 2 and site 3 region of dynamin I
Regarding B3, in assay [2], the “fold weaker inhibitory effect than on syndapin I binding” value was 5 fold.
